Each block holds one molecule with its values, some of them ahead of it.
B2: DsrE3A (Mcup_0681) of Metallosphaera cuprina Ar-4, N-terminally His-tagged (natural protein, UniProt F4G1H3 1-133, looked up)
chain: MAQTQTEQAQEEQKKKILIVVTHGPEDLDRTYAPLFMASISASMEYETSVFFMIKGPLLLSKKWQEDERKKGGNPFIHFFDMAKDNNVKMYVCVQSLKDMCHMNESDVVDGIELVGGSTLIDLTLDADRTLFF
notes: DsrE3A, locus Mcup_0681, Metallosphaera cuprina Ar-4; gene amplified from genomic DNA into pET15b; theoretical mass with His tag 17,697 Da; Homotrimer by gel filtration

How the values were obtained:
[1] = biological target: DsrE3A-C93S with His-tag (Metallosphaera cuprina Ar-4); assay: SEC; oligomerization analysis, data not shown; proteins incubated with or without 25 μM TCEP at room temperature for 1 h; HiLoad 16/60 Superdex 75; 50 mM Tris-HCl (pH 7.5), 150 mM KCl; 0.5 ml/min
[2] = biological target: DsrE3A-C101S with His-tag (Metallosphaera cuprina Ar-4); assay: as above
[3] = biological target: DsrE3A-C93S/C101S with His-tag (Metallosphaera cuprina Ar-4); assay: as above
[4] = biological target: the molecule itself; assay: as above
[5] = biological target: B2; assay: SPR; Biacore 3000, CM5 chip, 25 °C; DsrE3A covalently immobilised (about 1500 RU); TusA as analyte in PBST (PBS, 0.005% Tween 20, pH 7.4), 30 μl/min, 2 min injection, 8 min dissociation; conditions: both partners purified

Molecule: DsrE3A-C93S with His-tag (natural protein)
stoichiometry N [1]: 3

Molecule: B2
stoichiometry N [4]: 3

More lines, main results first:

stoichiometry N [2]: 3
Molecule: DsrE3A-C101S with His-tag (natural protein)

stoichiometry N [3]: 3
Molecule: DsrE3A-C93S/C101S with His-tag (natural protein)

Kd [5]: 0.1 nM
B1: TusA (Mcup_0683) of Metallosphaera cuprina Ar-4, N-terminally His-tagged (natural protein, UniProt F4G1H5 1-80, looked up)
chain: MAQDVKITKTLDVKGMYCPGPVMETAKAIKQINVGEVLEVLATDPAAKPDIEAWARRTGNQILDIQQQGGVTRILVKRAK
notes: TusA, locus Mcup_0683, Metallosphaera cuprina Ar-4; gene amplified from genomic DNA into pET15b; theoretical mass with His tag 10,895 Da; Occurs as monomers and dimers
stoichiometry N [4]: 2

Reference: PMC4175335, “Thiosulfate Transfer Mediated by DsrE/TusA Homologs from Acidothermophilic Sulfur-oxidizing Archaeon Metallosphaera cuprina*” (The Journal of Biological Chemistry, 2014)
